Changes are numbered by the printed parent chain. Each block holds one binder with its values, some of them ahead of it.
Experiments:
[1] = biological target: T1, extracellular domain (ECD) of human IGSF11 (VSIG3), biotinylated (human, UniProt Q5DX21 23-241, biotinylated (site not stated)); assay: ELISA, scFv; RFU grade (*** >1.0, ** 0.5-1.0, * 0.1-0.5)
T1 construct: also called human IGSF11 protein
T1 sequence: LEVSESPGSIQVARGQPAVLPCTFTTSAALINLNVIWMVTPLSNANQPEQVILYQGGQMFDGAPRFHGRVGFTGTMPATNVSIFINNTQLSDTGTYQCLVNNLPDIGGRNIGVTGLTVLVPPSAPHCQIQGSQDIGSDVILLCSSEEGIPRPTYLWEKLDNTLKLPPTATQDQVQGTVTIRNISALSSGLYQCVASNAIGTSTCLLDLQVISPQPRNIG

[2] = biological target: T2, extracellular domain (ECD) of murine IGSF11, biotinylated (mouse, UniProt P0C673 23-240, biotinylated (site not stated)); assay: as above
T2 construct: also called Mouse IGSF11; murine IGSF11 protein
T2 sequence: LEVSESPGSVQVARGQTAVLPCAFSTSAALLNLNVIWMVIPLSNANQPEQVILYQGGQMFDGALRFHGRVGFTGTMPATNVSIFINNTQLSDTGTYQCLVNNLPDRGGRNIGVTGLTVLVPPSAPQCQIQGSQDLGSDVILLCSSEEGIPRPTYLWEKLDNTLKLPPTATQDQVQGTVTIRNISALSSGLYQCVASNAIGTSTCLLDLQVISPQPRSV

relative fluorescent units (RFU), ELISA [1]: 0.1 to 0.5 rfu
relative fluorescent units (RFU), ELISA [2]: > 1 rfu
B1: A-011 (scFv format) (scFv, V domains shown)
VH: QVQLVESGGGVVQPGRSLRLSCAASGFTFSSYAMHWVRQAPGKGLEWVAVISYDGSNKYYADSVKGRFTISRDNSKNTLYLQMNSLRAEDTAVYYCAEGGALNYYGMDVWGQGTTVTVSS
VL: SSELTQDPGVSVALGQTVRITCQGDSLRHFYATWYQQKPGQAPILVIYGKNNRPSGIPDRFSGSSSEDTASLTITGAQAEDEADYYCQSRDPRNNHLIFGGGTKLIVL
notes: scFv

relative fluorescent units (RFU), ELISA [1]: 0.5 to 1 rfu
relative fluorescent units (RFU), ELISA [2]: 0.5 to 1 rfu
B2: A-015 (scFv format) (scFv, V domains shown)
VH: not shown
VL: QPVLTQSPSASASLGASVKLTCTLSSGHTNYAIAWRQQQPGKAPRYLMLLNSDGSHTRGGGIPDRFSGSSSGAERYLTISSLQSEDEADYYCMIWHNNAWVFGGGTKLAVL
notes: scFv

relative fluorescent units (RFU), ELISA [1]: 0.5 to 1 rfu
relative fluorescent units (RFU), ELISA [2]: 0.5 to 1 rfu
B3: A-010 (scFv format) (scFv, V domains shown)
VH: QVQLVQSGAEVKKPGASVKVSCKASGYTFTSYGISWVRQAPGQGLEWMGWISAYNGNTNYAQKLQGRVTMTTDTSTSTAYMELRSLRSDDTAVYYCARVPAWSGQFDYWGQGTLVTVSS
VL: QSALTQPASVSGSPGQSITISCTGSSSDVGGYNYVSWYQQYPGKAPKLMIYDVRSRPSGVSNRFSGSKSGNTASLTISGLQAEDEADYYCTSYTSSNTLVIFGGGTKVTVL
notes: scFv

relative fluorescent units (RFU), ELISA [1]: 0.5 to 1 rfu
relative fluorescent units (RFU), ELISA [2]: 0.1 to 0.5 rfu
B4: A-021 (scFv format) (scFv, V domains shown)
VH: B3 VH
VL: QSALTQPASVSGSPGQSITISCTGTSSDVGGYNYVSWYQQHPGKAPKLMIYEVTNRPSGVSDRFSGSKSANTASLTISELQAEDEAVYYCNSYTSGPTYVLFGGGTQLTVL
notes: scFv

relative fluorescent units (RFU), ELISA [1]: 0.5 to 1 rfu
relative fluorescent units (RFU), ELISA [2]: 0.5 to 1 rfu
B5: A-007 (scFv format) (scFv, V domains shown)
VH: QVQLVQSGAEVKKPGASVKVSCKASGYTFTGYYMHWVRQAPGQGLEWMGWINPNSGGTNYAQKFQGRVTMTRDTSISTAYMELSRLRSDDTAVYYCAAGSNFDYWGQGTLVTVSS
VL: QSALTQPASVSGSPGQSITIACTGSSSDIGSFSYVSWYQQRPGKAPTLIIYGVNNRPLGVSRRFSGSKSGNTASLSISGLQAEDEADYYCSSYTRRSTVIFGGGTKLTVL
notes: scFv

relative fluorescent units (RFU), ELISA [1]: > 1 rfu
relative fluorescent units (RFU), ELISA [2]: 0.5 to 1 rfu
B6: A-016 (scFv format) (scFv, V domains shown)
VH: QVQLQESGAEVKKPGASVKVSCKASGYTFTGYYMHWVRQAPGQGLEWMGGIIPIFGTANYAQKFQGRVTITADESTSTAYMELSSLRSEDTAVYYCAGAGMELTRSGAYYYYGMDVWGQGTTVTVSS
VL: QSALTQPASVSGSPGQSITISCTGTSSDIGGYTFVSWYQQHPGKAPKVMIHDVNNRPSGISNRFSGSKSGNTASLTISGLQAEDEADYYCSSVTSTNTYVFGTGTKVTVL
notes: scFv

relative fluorescent units (RFU), ELISA [1]: 0.5 to 1 rfu
relative fluorescent units (RFU), ELISA [2]: 0.5 to 1 rfu
B7: A-012 (scFv format) (scFv, V domains shown)
VH: EVQLLESGGGLIQPGGSLRLSCAVSGFTVSSNYMSWVRQAPGKGLEWVSVIYSGGSTYYADSVKGRFTISRDNSKNTLYLQMNSLRAEDTAVYYCARGNPYYYGDLQVNFDYWGQGTLVTVSS
VL: QAVVTQEPSLTVSPGGTVTLTCASSTGAVTSGYYPNWFQQKPGQAPRALIYSTSNKHSWTPARFSGSLLGGKAALTLSGVQPEDEAEYYCLLYYGGAWVFGGGTKLTVL
notes: scFv

relative fluorescent units (RFU), ELISA [1]: 0.5 to 1 rfu
relative fluorescent units (RFU), ELISA [2]: 0.1 to 0.5 rfu
B8: A-005 (scFv format) (scFv, V domains shown)
VH: B7 VH with L5V, V24A
VL: B7 VL with G16E, K41R, H57D
notes: scFv

relative fluorescent units (RFU), ELISA [1]: 0.5 to 1 rfu
relative fluorescent units (RFU), ELISA [2]: 0.5 to 1 rfu
B9: A-013 (scFv format) (scFv, V domains shown)
VH: B7 VH with L5V, V24A
VL: B7 VL with G32A, E87D
notes: scFv

relative fluorescent units (RFU), ELISA [1]: 0.5 to 1 rfu
relative fluorescent units (RFU), ELISA [2]: 0.1 to 0.5 rfu
B10: A-002 (scFv format) (scFv, V domains shown)
VH: B7 VH with L5V, V24A
VL: B7 VL with L20P, A23G, Y33N, Y34L, F64I
notes: scFv

relative fluorescent units (RFU), ELISA [1]: 0.5 to 1 rfu
relative fluorescent units (RFU), ELISA [2]: 0.5 to 1 rfu
B11: A-006 (scFv format) (scFv, V domains shown)
VH: B7 VH with L5V, V24A
VL: B7 VL with A48P, E83D, A97D
notes: scFv

relative fluorescent units (RFU), ELISA [1]: 0.5 to 1 rfu
relative fluorescent units (RFU), ELISA [2]: 0.1 to 0.5 rfu
B12: A-009 (scFv format) (scFv, V domains shown)
VH: QVQLVQSGAEVKKPGSSVKVSCKASGGTFSSYAISWVRQAPGQGLEWMGGIIPIFGTANYAQKFQGRVTITADESTSTAYMELSSLRSEDTAVYYCARGRGFGELYFDYWGQGTLVTVSS
VL: ETTLTQSPATLSVSPGERATLSCRASQGVRSNIAWYQQKPGQAPRLLIYDSSTRATGIPARFSGSGSGTEFTLTISSLQSEDFAVYSCQQYKNWPRTFGQGTKVEIK
notes: scFv

relative fluorescent units (RFU), ELISA [1]: 0.1 to 0.5 rfu
relative fluorescent units (RFU), ELISA [2]: 0.1 to 0.5 rfu
B13: A-037 (scFv format) (scFv, V domains shown)
VH: QVQLVQSGAEVKKPGASVKVSCKASGYTFTGYYMHWVRQAPGQGLEWMGWINPNSGNTGYAQKFQGRVTMTRNTSISTAYMELSSLRSEDTAVYYCARGGQQQLVLDDYWGQGTLVTVSS
VL: NFMLTQPHSVSESPGKTVTISCTGSSGSIASNYVQWYQQRPGSAPTTVIYEDNQRPSGVPDRFSGSIDSSSNSASLTISGLKTEDEADYYCQSYDSSNQRVFGGGTKLTVL
notes: scFv

relative fluorescent units (RFU), ELISA [1]: > 1 rfu
relative fluorescent units (RFU), ELISA [2]: 0.5 to 1 rfu
B14: A-019 (scFv format) (scFv, V domains shown)
VH: B13 VH
VL: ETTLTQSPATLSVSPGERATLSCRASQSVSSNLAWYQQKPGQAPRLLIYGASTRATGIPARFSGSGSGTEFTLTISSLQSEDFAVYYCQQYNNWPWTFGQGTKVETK
notes: scFv

relative fluorescent units (RFU), ELISA [1]: 0.5 to 1 rfu
relative fluorescent units (RFU), ELISA [2]: 0.1 to 0.5 rfu
B15: A-017 (scFv format) (scFv, V domains shown)
VH: B13 VH
VL: DIVLTQSPASLSASVGDRITITCQASQDIRHHLNWFQHKPGKAPKLLISDSSNLETGVPSRFSGSGSGTDFSFTISRLQPEDIATYYCQQYDSLPRTFGQGTKLEIK
notes: scFv

relative fluorescent units (RFU), ELISA [1]: > 1 rfu
relative fluorescent units (RFU), ELISA [2]: > 1 rfu
B16: A-008 (scFv format) (scFv, V domains shown)
VH: QLQLQESGPGLVKPSETLSLTCTVSGGSISSSGYYWGWIRQPPGKGLEWIGSIYYSGSTYYNPSLKSRVTISVDTSKNQFSLKLSSVTAADTAVYYCARHRVRFGEFDAFDIWGQGTMVTVSS
VL: QAVLTQPPSVSGAPGERVTLSCTGTSSNVGADFDVHWYQQFPGTAPRLLIFGSDNRPSGVPDRFSGSKSGTSASLAITGLQVEDEADYYCQAYDVRLSGWVFGGGTKLTVL
notes: scFv

relative fluorescent units (RFU), ELISA [1]: 0.5 to 1 rfu
relative fluorescent units (RFU), ELISA [2]: 0.1 to 0.5 rfu
B17: A-014 (scFv format) (scFv, V domains shown)
VH: QVQLVQSGAEVKKPGASVKVSCKASGYTFNDYYIHWVRQAPGQGLEWMGWFNPSTGGANYAQKFQGRVTMTRDTSISTAYLEVSSLRSDDTAVYYCARGNSPDLDYWGQGTLVTVSS
VL: DIQMTQSPDSLTVSLGERATINCKSSQSLLHSSNNKNYLAWYQQRPGQPPKLLIYWASTRQSGVPDRFSGSGSGTDFTLTINSLQADDMAVYYCQQYYTTTPNTFGQGTKLEIK
notes: scFv
